Results taken from patent US20150044137A1.
“And” between values parts separate entries of the source, which are not always exact repeats. Equal values may be shown once.

Legend:
[1] = target: Yu2 gp120 HIV-1 Env protein (HIV-1 (strain Yu2)) (UniProt P35961)
[2] = target: HIV-1 gp120 (HIV-1)

## CD4-Ig (Fc fusion)
[1]
  IC50 (read off the curve): 0.08 µg/mL and 0.1 µg/mL

## VRC01 (antibody)
[2]
  contribution of CDR H1 to gp120-binding surface area: 44 Å2
  contribution of CDR H2/FR3 to gp120-binding surface area: 701 Å2
  contribution of CDR H3 to gp120-binding surface area: 122 Å2
  total gp120-binding surface area (Total A 2): 867 Å2
